For this test, the target named is acetylcholine receptor (Homo sapiens, UniProt P02708). In words: SPR binding affinity (RU) of optimized 5mer/6mer/7mer peptides, Examples 6-7. The note with it: SPR, 6mer-2 Bottom sequence. A digest of the protocol: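 Peptides were tested at 10 μM by surface plasmon resonance against the receptor, with binding reported as response units. Library sequences were built from frequent (top) or infrequent (bottom) amino acid combinations in 5mer, 6mer-1 and 6mer-2 series.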

The mark [1] stands for this setting: Resonance Units, peptides tested at 10 μM.

Sequence of acetylcholine receptor (P02708 21-457): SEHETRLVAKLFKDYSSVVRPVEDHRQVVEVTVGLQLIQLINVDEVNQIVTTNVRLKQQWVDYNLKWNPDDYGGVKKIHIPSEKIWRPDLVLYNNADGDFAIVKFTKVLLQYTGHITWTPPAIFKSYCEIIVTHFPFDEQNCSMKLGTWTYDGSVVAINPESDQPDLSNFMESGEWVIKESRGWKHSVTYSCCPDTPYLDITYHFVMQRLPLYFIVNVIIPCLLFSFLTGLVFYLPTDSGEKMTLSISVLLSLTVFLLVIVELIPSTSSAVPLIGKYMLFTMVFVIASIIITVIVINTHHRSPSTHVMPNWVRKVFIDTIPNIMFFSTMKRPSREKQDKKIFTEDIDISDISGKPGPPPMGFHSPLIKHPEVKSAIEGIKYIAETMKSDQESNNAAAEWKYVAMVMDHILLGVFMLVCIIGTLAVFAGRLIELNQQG

For the substance 6mer-2-964 (KCEDRK), the Binding affinity under setting [1] is on record as 41 Ru.

Turning to 6mer-2-965 (KPWFKR), the Binding affinity under setting [1] was 36 Ru.

In the case of 6mer-2-966 (KEDAKR), the Binding affinity under setting [1] was 41 Ru.

As for 6mer-2-967 (RTSNKK), the Binding affinity under setting [1] worked out at 35 Ru.

Regarding 6mer-2-968 (RHWEKK), the Binding affinity under setting [1] came to 39 Ru.

For the substance 6mer-2-969 (KATHKR), under setting [1], the Binding affinity amounted to 33 Ru.

Turning to 6mer-2-970 (KDDVRR), the Binding affinity under setting [1] was 27 Ru.

Consider 6mer-2-971 (KEMFRK), for which the Binding affinity under setting [1] stood at 29 Ru.

As for 6mer-2-972 (KAMFRR), the Binding affinity under setting [1] came out at 38 Ru.

On to 6mer-2-973 (KCPIKK), for which the Binding affinity under setting [1] is 41 Ru.

Take 6mer-2-974 (RFDDRR): the Binding affinity under setting [1] was found to be 38 Ru.

Regarding 6mer-2-975 (KKTMKK), the Binding affinity under setting [1] is on record as 38 Ru.

In the case of 6mer-2-976 (RTTGKK), the Binding affinity under setting [1] is listed as 26 Ru.

On to 6mer-2-977 (REMKRK), for which the Binding affinity under setting [1] was 30 Ru.

For the substance 6mer-2-978 (KEPHRR), the Binding affinity under setting [1] worked out at 28 Ru.

In the case of 6mer-2-979 (KKAFKK), the Binding affinity under setting [1] is 22 Ru.

As for 6mer-2-980 (KESGKR), under setting [1], the Binding affinity came to 34 Ru.

As to 6mer-2-981 (RCEIRK), the Binding affinity under setting [1] came out at 32 Ru.

As to 6mer-2-982 (RMHAKK), under setting [1], the Binding affinity worked out at 38 Ru.

With 6mer-2-983 (RTWHRR), the Binding affinity under setting [1] worked out at 37 Ru.

Consider 6mer-2-984 (KDMWKK), for which the Binding affinity under setting [1] was determined as 43 Ru.

For 6mer-2-985 (REMNKR), the Binding affinity under setting [1] is given as 34 Ru.

Turning to 6mer-2-986 (KNWARR), the Binding affinity under setting [1] amounted to 27 Ru.

For the substance 6mer-2-987 (RCHPKK), under setting [1], the Binding affinity is given as 22 Ru.

In the case of 6mer-2-988 (KMCEKK), under setting [1], the Binding affinity came to 41 Ru.

On to 6mer-2-989 (KAHNKR), for which, under setting [1], the Binding affinity is 22 Ru.

Turning to 6mer-2-990 (RKKMKR), under setting [1], the Binding affinity is on record as 41 Ru.

With 6mer-2-991 (KCHFRR), the Binding affinity under setting [1] amounted to 30 Ru.

With 6mer-2-992 (RMHFRR), the Binding affinity under setting [1] is on record as 33 Ru.

Regarding 6mer-2-993 (RHDVKK), the Binding affinity under setting [1] came out at 29 Ru.

For 6mer-2-994 (KYCIKK), the Binding affinity under setting [1] was 41 Ru.

Take 6mer-2-995 (KFWEKK): under “peptides at 10 μM”, the Binding affinity is reported as 38 Ru.

6mer-2-996 (RHDARK): the Binding affinity (peptides at 10 μM) worked out at 40 Ru.

6mer-2-997 (KISFKK): the Binding affinity (peptides at 10 μM) was 30 Ru.

As for 6mer-2-998 (KEMWKK), the Binding affinity (peptides at 10 μM) was determined as 43 Ru.

Take 6mer-2-999 (RATIKR): the Binding affinity (peptides at 10 μM) came out at 31 Ru.

Take 6mer-2-1000 (KCHDKK): the Binding affinity (peptides at 10 μM) turned out to be 41 Ru.

6mer-2-1001 (RKKFKK): the Binding affinity (peptides at 10 μM) is reported as 37 Ru.

With 6mer-2-1002 (RCNDKR), under “peptides at 10 μM”, the Binding affinity was 42 Ru.

As to 6mer-2-1003 (KPEWKR), the Binding affinity (peptides at 10 μM) was 42 Ru.

Turning to 6mer-2-1004 (RDTHKR), the Binding affinity (peptides at 10 μM) was found to be 38 Ru.

With 6mer-2-1005 (RFKARR), where the note is “peptides at 10 μM”, the Binding affinity is given as 23 Ru.

Consider 6mer-2-1006 (RATMRR), for which the Binding affinity (peptides at 10 μM) stood at 30 Ru.

Take 6mer-2-1007 (RHTNKK): the Binding affinity (peptides at 10 μM) was 42 Ru.

As for 6mer-2-1008 (RAWKKR), for the setting “peptides at 10 μM”, the Binding affinity came to 38 Ru.

6mer-2-1009 (KINPRK): the Binding affinity (peptides at 10 μM) is given as 34 Ru.

Take 6mer-2-1010 (RANHKK): the Binding affinity (peptides at 10 μM) is recorded as 36 Ru.

In the case of 6mer-2-1011 (RAEFRR), the Binding affinity (peptides at 10 μM) is on record as 22 Ru.

In the case of 6mer-2-1012 (KASAKK), the Binding affinity (peptides at 10 μM) came out at 30 Ru.

Turning to 6mer-2-1013 (KPPDKR), for the setting “peptides at 10 μM”, the Binding affinity was 23 Ru.

As for 6mer-2-1014 (RPPMRR), the Binding affinity (peptides at 10 μM) was 34 Ru.

Take 6mer-2-1015 (RDEMKR): the Binding affinity (peptides at 10 μM) is given as 29 Ru.

For the substance 6mer-2-1016 (RNEEKR), the Binding affinity (peptides at 10 μM) is reported as 41 Ru.

As for 6mer-2-1017 (RAPVRR), the Binding affinity (peptides at 10 μM) is 40 Ru.

As for 6mer-2-1018 (RPTKKK), under “peptides at 10 μM”, the Binding affinity worked out at 24 Ru.

With 6mer-2-1019 (RNTWKK), under “peptides at 10 μM”, the Binding affinity is 23 Ru.

Take 6mer-2-1020 (KHDKKR): under “peptides at 10 μM”, the Binding affinity is recorded as 21 Ru.

For 6mer-2-1021 (RYTPKR), the Binding affinity (peptides at 10 μM) stood at 39 Ru.

With 6mer-2-1022 (KCNPRR), the Binding affinity (peptides at 10 μM) turned out to be 22 Ru.

As to 6mer-2-1023 (KAEFKR), the Binding affinity (peptides at 10 μM) worked out at 26 Ru.

Take 6mer-2-1024 (RFHNKR): the Binding affinity (peptides at 10 μM) is listed as 37 Ru.

On to 6mer-2-1025 (RCSHRR), for which the Binding affinity (peptides at 10 μM) amounted to 39 Ru.

6mer-2-1026 (KENHRK): where the note is “peptides at 10 μM”, the Binding affinity stood at 33 Ru.

For 6mer-2-1027 (KTPVKK), the Binding affinity (peptides at 10 μM) stood at 32 Ru.

6mer-2-1028 (KPEHRR): the Binding affinity (peptides at 10 μM) is given as 41 Ru.

Take 6mer-2-1029 (KEEFKK): where the note is “peptides at 10 μM”, the Binding affinity is 40 Ru.

Turning to 6mer-2-1030 (RAPFKK), where the note is “peptides at 10 μM”, the Binding affinity worked out at 28 Ru.

For 6mer-2-1031 (RAWERK), the Binding affinity (peptides at 10 μM) turned out to be 33 Ru.

Turning to 6mer-2-1032 (KETVKR), the Binding affinity (peptides at 10 μM) is 31 Ru.

Take 6mer-2-1033 (KMDEKK): the Binding affinity (peptides at 10 μM) is recorded as 28 Ru.

As to 6mer-2-1034 (KHSWRR), the Binding affinity (peptides at 10 μM) is recorded as 38 Ru.

Turning to 6mer-2-1035 (RPPVKK), the Binding affinity (peptides at 10 μM) worked out at 39 Ru.

For 6mer-2-1036 (KAKNKR), the Binding affinity (peptides at 10 μM) is reported as 25 Ru.

6mer-2-1037 (KIHWKK): the Binding affinity (peptides at 10 μM) worked out at 26 Ru.

In the case of 6mer-2-1038 (KHWERK), the Binding affinity (peptides at 10 μM) is reported as 33 Ru.

Take 6mer-2-1039 (RNHFRK): the Binding affinity (peptides at 10 μM) is 26 Ru.

For 6mer-2-1040 (KYAWRK), the Binding affinity (peptides at 10 μM) amounted to 36 Ru.

On to 6mer-2-1041 (RACDKR), for which, for the setting “peptides at 10 μM”, the Binding affinity is 22 Ru.

Consider 6mer-2-1042 (KKMFRK), for which the Binding affinity (peptides at 10 μM) was determined as 36 Ru.

In the case of 6mer-2-1043 (RDKGKK), the Binding affinity (peptides at 10 μM) is 40 Ru.

Consider 6mer-2-1044 (KHTDKK), for which the Binding affinity (peptides at 10 μM) is listed as 41 Ru.

On to 6mer-2-1045 (RHAHRR), for which, where the note is “peptides at 10 μM”, the Binding affinity came to 41 Ru.

For 6mer-2-1046 (RNSEKR), the Binding affinity (peptides at 10 μM) turned out to be 39 Ru.

Turning to 6mer-2-1047 (RHDDKR), for the setting “peptides at 10 μM”, the Binding affinity is 28 Ru.

6mer-2-1048 (RIHNRK): the Binding affinity (peptides at 10 μM) was 22 Ru.

Regarding 6mer-2-1049 (KMSPRR), the Binding affinity (peptides at 10 μM) was determined as 26 Ru.

Take 6mer-2-1050 (KPPPRK): the Binding affinity (peptides at 10 μM) was determined as 26 Ru.

6mer-2-1051 (RKHMRR): the Binding affinity (peptides at 10 μM) is 24 Ru.

On to 6mer-2-1052 (KAPARK), for which the Binding affinity (peptides at 10 μM) is reported as 23 Ru.

As for 6mer-2-1053 (KEMGKK), for the setting “peptides at 10 μM”, the Binding affinity is 34 Ru.

In the case of 6mer-2-1054 (KKNKKR), where the note is “peptides at 10 μM”, the Binding affinity was found to be 43 Ru.

For 6mer-2-1055 (KPDFKR), the Binding affinity (peptides at 10 μM) is 30 Ru.

Consider 6mer-2-1056 (RNDERK), for which the Binding affinity (peptides at 10 μM) amounted to 22 Ru.

For 6mer-2-1057 (RKKKKK), the Binding affinity (peptides at 10 μM) worked out at 25 Ru.

Consider 6mer-2-1058 (RMPWKK), for which, where the note is “peptides at 10 μM”, the Binding affinity is given as 24 Ru.

With 6mer-2-1059 (RFADRR), the Binding affinity (peptides at 10 μM) worked out at 35 Ru.

Take 6mer-2-1060 (KTNERK): where the note is “peptides at 10 μM”, the Binding affinity was 35 Ru.

These data come from patent publication US20250011363A1, “OPTIMIZED SHORTENED PEPTIDE THAT BINDS TO ACETYLCHOLINE RECEPTOR, AND USE THEREOF” (SKINMED CO., LTD., priority 2021, published 2025).
